# According to US20260167699A1 (Chugai, published 2026):
# Positions count from the first letter of the chain named.
# T1: FcγRIIa(H) (human, UniProt P12318 34-217)
# T1 construct: extracellular domain; allotype H131; also called 2aH
# T1 sequence: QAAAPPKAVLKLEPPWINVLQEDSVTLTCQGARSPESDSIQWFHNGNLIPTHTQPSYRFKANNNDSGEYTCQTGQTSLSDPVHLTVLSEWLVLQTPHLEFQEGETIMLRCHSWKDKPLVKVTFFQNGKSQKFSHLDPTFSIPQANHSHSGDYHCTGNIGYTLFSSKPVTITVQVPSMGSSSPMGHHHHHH
# T2: FcγRIIb (human, UniProt P31994 43-217)
# T2 construct: extracellular domain; also called 2b
# T2 sequence: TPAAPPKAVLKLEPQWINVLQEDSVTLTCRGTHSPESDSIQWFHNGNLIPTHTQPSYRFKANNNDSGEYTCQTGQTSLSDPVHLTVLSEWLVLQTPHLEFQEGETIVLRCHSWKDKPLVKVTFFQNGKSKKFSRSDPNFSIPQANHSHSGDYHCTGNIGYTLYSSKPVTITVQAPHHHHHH
# T3: FcγRIIa(R) (human, UniProt P12318 34-217)
# T3 construct: extracellular domain; allotype R131; also called 2aR
# T3 sequence: T1 sequence with H134R
# B1: GpH7-A5/GpH7-B3 variant S337_08L/GpL16-k0 (antibody, human IgG1, kappa)
# heavy 1: not shown
# heavy 2: not shown
# light: DIVMTQSPLSLPVTPGEPASISCQASESLVHSNRNTYLHWYLQKPGQSPQLLIYKVSNRFSGVPDRFSGSGSGTDFTLKISRVEAEDVGVYYCSQNTHVPPTFGQGTKVEIERTVAAPSVFIFPPSDEQLKSGTASVVCLLNNFYPREAKVQWKVDNALQSGNSQESVTEQDSKDSTYSLSSTLTLSKADYEKHKVYACEVTHQGLSSPVTKSFNRGEC
# notes: Heterodimerized anti-glypican 3 IgG1 antibody with the mutation in only one H chain (GpH7-B3 side); also called He Ab
# B2: GpH7-A5/GpH7-B3 variant S337_07I/GpL16-k0 (antibody, human IgG1, kappa)
# heavy 1: not shown
# heavy 2: not shown
# light: B1 light
# notes: as for B1
# B3: Kn125-L4-GS11 (antibody, human IgG1, kappa)
# heavy 1: QDQLVQSGAEVKKPGASVKVSCKASGFNIKDTYIQWVRQAPGQGLEWMGRIDPLRKQTKYREKFEGRVTITADTSTNTAYMELSSLRSEDTAVYYCVRSGREFDYWGQGTLVTVSSASTKGPSVFPLAPSSKSTSGGTAALGCLVKDYFPEPVTVSWNSGALTSGVHTFPAVLQSSGLYSLSSVVTVPSSSLGTQTYICNVNHKPSNTKVDKKVEPKSCDKTHTCPPCPAPELLGGPSVFLFPPKPKDTLMISRTPEVTCVVVDVSHEEPEVKFNWYVDGVEVHNAKTKPREEQYNSTYRVVSVLTVLHQDWLNGKEYKCKVSNDALPMPIEETISKAKGQPREPQVYTLPPSRCELTKNQVSLSCAVKGFYPSDIAVEWESNGQPENNYKTTPPVLDSDGSFFLVSKLTVDKSRWQQGNVFSCSVMHEALHNHYTQKSLSLSP
# heavy 2: QDQLVQSGAEVKKPGASVKVSCKASGFNIKDTYIQWVRQAPGQGLEWMGRIDPLRKQTKYREKFEGRVTITADTSTNTAYMELSSLRSEDTAVYYCVRSGREFDYWGQGTLVTVSSASTKGPSVFPLAPSSKSTSGGTAALGCLVKDYFPEPVTVSWNSGALTSGVHTFPAVLQSSGLYSLSSVVTVPSSSLGTQTYICNVNHKPSNTKVDKKVEPKSCDKTHTCPPCPAPEYQWGPMVFLFPPKPKDTLMISRTPEVTCVVVDVSDEEPEVKFNWYVDGVEVHNAKTKPREEQYNATYRVVSVLTVLHQDWLNGKEYKCKVSNGGSGGGSGGGSPIEKTISKAKGQPREPQVCTLPPSRDELTKNQVSLWCLVKGFYPSDIAVEWESNGQPENNYKTTPPVLDSDGSFFLYSKLTVDKSRWQQGNVFSCSVMHEALHNHYTQKSLSLSP
# light: DIQMTQSPSSLSASVGDRVTITCRASQDIHKYIAWYQQKPGQAPRLLIQYTSTLQPGVPSRFSGSGSGTDYTFTISSLQPEDIATYYCLQYEQLRTFGGGTKVEIKRTVAAPSVFIFPPSDEQLKSGTASVVCLLNNFYPREAKVQWKVDNALQSGNSQESVTEQDSKDSTYSLSSTLTLSKADYEKHKVYACEVTHQGLSSPVTKSFNRGEC
# notes: heterodimerized anti-EREG antibody: altered H240-Kn125 chain (Gly/Ser peptide in loop) with H240-Hl076 and L73-k0
# B4: Kn125-L4-9 (antibody, human IgG1, kappa)
# heavy 1: B3 heavy 1
# heavy 2: QDQLVQSGAEVKKPGASVKVSCKASGFNIKDTYIQWVRQAPGQGLEWMGRIDPLRKQTKYREKFEGRVTITADTSTNTAYMELSSLRSEDTAVYYCVRSGREFDYWGQGTLVTVSSASTKGPSVFPLAPSSKSTSGGTAALGCLVKDYFPEPVTVSWNSGALTSGVHTFPAVLQSSGLYSLSSVVTVPSSSLGTQTYICNVNHKPSNTKVDKKVEPKSCDKTHTCPPCPAPEYQWGPMVFLFPPKPKDTLMISRTPEVTCVVVDVSDEEPEVKFNWYVDGVEVHNAKTKPREEQYNATYRVVSVLTVLHQDWLNGKEYKCKVSNKGGSGGSGGSALPAPIEKTISKAKGQPREPQVCTLPPSRDELTKNQVSLWCLVKGFYPSDIAVEWESNGQPENNYKTTPPVLDSDGSFFLYSKLTVDKSRWQQGNVFSCSVMHEALHNHYTQKSLSLSP
# light: B3 light
# notes: as for B3
# B5: Kn125-L4-3 (antibody, human IgG1, kappa)
# heavy 1: B3 heavy 1
# heavy 2: QDQLVQSGAEVKKPGASVKVSCKASGFNIKDTYIQWVRQAPGQGLEWMGRIDPLRKQTKYREKFEGRVTITADTSTNTAYMELSSLRSEDTAVYYCVRSGREFDYWGQGTLVTVSSASTKGPSVFPLAPSSKSTSGGTAALGCLVKDYFPEPVTVSWNSGALTSGVHTFPAVLQSSGLYSLSSVVTVPSSSLGTQTYICNVNHKPSNTKVDKKVEPKSCDKTHTCPPCPAPEYQWGPMVFLFPPKPKDTLMISRTPEVTCVVVDVSDEEPEVKFNWYVDGVEVHNAKTKPREEQYNATYRVVSVLTVLHQDWLNGKEYKCKVSNKGGSALPAPIEKTISKAKGQPREPQVCTLPPSRDELTKNQVSLWCLVKGFYPSDIAVEWESNGQPENNYKTTPPVLDSDGSFFLYSKLTVDKSRWQQGNVFSCSVMHEALHNHYTQKSLSLSP
# light: B3 light
# notes: as for B3
# B6: Kn125-L2a-6 (antibody, human IgG1, kappa)
# heavy 1: B3 heavy 1
# heavy 2: QDQLVQSGAEVKKPGASVKVSCKASGFNIKDTYIQWVRQAPGQGLEWMGRIDPLRKQTKYREKFEGRVTITADTSTNTAYMELSSLRSEDTAVYYCVRSGREFDYWGQGTLVTVSSASTKGPSVFPLAPSSKSTSGGTAALGCLVKDYFPEPVTVSWNSGALTSGVHTFPAVLQSSGLYSLSSVVTVPSSSLGTQTYICNVNHKPSNTKVDKKVEPKSCDKTHTCPPCPAPEYQWGPMVFLFPPKPKDTLMISRTPEVTCVVVDVSDEGGSGGSEPEVKFNWYVDGVEVHNAKTKPREEQYNATYRVVSVLTVLHQDWLNGKEYKCKVSNKALPAPIEKTISKAKGQPREPQVCTLPPSRDELTKNQVSLWCLVKGFYPSDIAVEWESNGQPENNYKTTPPVLDSDGSFFLYSKLTVDKSRWQQGNVFSCSVMHEALHNHYTQKSLSLSP
# light: B3 light
# notes: as for B3
# B7: Kn125-L2a-3 (antibody, human IgG1, kappa)
# heavy 1: B3 heavy 1
# heavy 2: QDQLVQSGAEVKKPGASVKVSCKASGFNIKDTYIQWVRQAPGQGLEWMGRIDPLRKQTKYREKFEGRVTITADTSTNTAYMELSSLRSEDTAVYYCVRSGREFDYWGQGTLVTVSSASTKGPSVFPLAPSSKSTSGGTAALGCLVKDYFPEPVTVSWNSGALTSGVHTFPAVLQSSGLYSLSSVVTVPSSSLGTQTYICNVNHKPSNTKVDKKVEPKSCDKTHTCPPCPAPEYQWGPMVFLFPPKPKDTLMISRTPEVTCVVVDVSDEGGSEPEVKFNWYVDGVEVHNAKTKPREEQYNATYRVVSVLTVLHQDWLNGKEYKCKVSNKALPAPIEKTISKAKGQPREPQVCTLPPSRDELTKNQVSLWCLVKGFYPSDIAVEWESNGQPENNYKTTPPVLDSDGSFFLYSKLTVDKSRWQQGNVFSCSVMHEALHNHYTQKSLSLSP
# light: B3 light
# notes: as for B3
# B8: Kn125-L2a-9 (antibody, human IgG1, kappa)
# heavy 1: B3 heavy 1
# heavy 2: QDQLVQSGAEVKKPGASVKVSCKASGFNIKDTYIQWVRQAPGQGLEWMGRIDPLRKQTKYREKFEGRVTITADTSTNTAYMELSSLRSEDTAVYYCVRSGREFDYWGQGTLVTVSSASTKGPSVFPLAPSSKSTSGGTAALGCLVKDYFPEPVTVSWNSGALTSGVHTFPAVLQSSGLYSLSSVVTVPSSSLGTQTYICNVNHKPSNTKVDKKVEPKSCDKTHTCPPCPAPEYQWGPMVFLFPPKPKDTLMISRTPEVTCVVVDVSDEGGSGGSGGSEPEVKFNWYVDGVEVHNAKTKPREEQYNATYRVVSVLTVLHQDWLNGKEYKCKVSNKALPAPIEKTISKAKGQPREPQVCTLPPSRDELTKNQVSLWCLVKGFYPSDIAVEWESNGQPENNYKTTPPVLDSDGSFFLYSKLTVDKSRWQQGNVFSCSVMHEALHNHYTQKSLSLSP
# light: B3 light
# notes: as for B3
# B9: Kn125-L2b-9 (antibody, human IgG1, kappa)
# heavy 1: B3 heavy 1
# heavy 2: B8 heavy 2 with G269E, S271G, G272S, S274G, G275S, S277G, E278S
# light: B3 light
# notes: as for B3
# B10: Kn125-L4-6 (antibody, human IgG1, kappa)
# heavy 1: B3 heavy 1
# heavy 2: B3 heavy 2 with G325K, S327G, G328S, G332A, G333L, G334P, S335A
# light: B3 light
# notes: as for B3
# B11: Kn125-L2b-6 (antibody, human IgG1, kappa)
# heavy 1: B3 heavy 1
# heavy 2: B6 heavy 2 with G269E, S271G, G272S, S274G, E275S
# light: B3 light
# notes: as for B3
# B12: Kn125-L2b-3 (antibody, human IgG1, kappa)
# heavy 1: B3 heavy 1
# heavy 2: B7 heavy 2 with G269E, S271G, E272S
# light: B3 light
# notes: as for B3
# Molecular target: T4, FcγRIa (human, UniProt P12314 16-292)
# T4 construct: extracellular domain; also called 1a
# T4 sequence (P12314 other isoform, or with tags, fused parts or gaps): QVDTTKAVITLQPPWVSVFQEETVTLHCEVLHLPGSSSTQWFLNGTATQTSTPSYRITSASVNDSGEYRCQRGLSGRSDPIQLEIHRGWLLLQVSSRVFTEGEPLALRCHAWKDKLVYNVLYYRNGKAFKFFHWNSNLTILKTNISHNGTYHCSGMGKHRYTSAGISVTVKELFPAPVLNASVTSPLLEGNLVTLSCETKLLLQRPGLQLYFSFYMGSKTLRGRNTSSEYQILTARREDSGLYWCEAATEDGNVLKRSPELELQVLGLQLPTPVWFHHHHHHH
# Experiment: SPR (Biacore), antibody captured on chip, FcγR as analyte; relative to GpH7-A5/GpH7-B3/GpL16-k0 = 100
row,He/Con 1a (binding activity relative to GpH7-A5/GpH7-B3/GpL16-k0 x 100),Binder
1,102 % of control,B1
2,102 % of control,B2

# Molecular target: T1, FcγRIIa(H)
# Experiment: as above
row,He/Con 2aH (binding activity relative to GpH7-A5/GpH7-B3/GpL16-k0 x 100),Binder
1,106 % of control,B1
2,107 % of control,B2

# Molecular target: T5, FcγRIIIa (human, UniProt P08637 17-208)
# T5 construct: extracellular domain; also called 3a
# T5 sequence (P08637 other isoform, or with tags, fused parts or gaps): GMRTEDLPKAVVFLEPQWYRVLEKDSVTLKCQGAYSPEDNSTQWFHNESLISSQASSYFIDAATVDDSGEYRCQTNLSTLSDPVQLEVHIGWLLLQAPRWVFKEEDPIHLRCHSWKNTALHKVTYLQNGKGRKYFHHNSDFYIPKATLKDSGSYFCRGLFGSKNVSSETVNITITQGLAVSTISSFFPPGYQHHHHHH
# Experiment: as above
row,He/Con 3a (binding activity relative to GpH7-A5/GpH7-B3/GpL16-k0 x 100),Binder
1,90.2 % of control,B1
2,88.3 % of control,B2

# Molecular target: T2, FcγRIIb
# Experiment: as above
row,He/Con 2b (binding activity relative to GpH7-A5/GpH7-B3/GpL16-k0 x 100),Binder
1,109 % of control,B1
2,113 % of control,B2

# Molecular target: T3, FcγRIIa(R)
# Experiment: as above
row,He/Con 2aR (binding activity relative to GpH7-A5/GpH7-B3/GpL16-k0 x 100),Binder
1,109 % of control,B1
2,111 % of control,B2

# Molecular target: T6, FcγRIIIaV (human, UniProt P08637 17-208)
# T6 construct: extracellular domain
# T6 sequence (P08637 other isoform, or with tags, fused parts or gaps): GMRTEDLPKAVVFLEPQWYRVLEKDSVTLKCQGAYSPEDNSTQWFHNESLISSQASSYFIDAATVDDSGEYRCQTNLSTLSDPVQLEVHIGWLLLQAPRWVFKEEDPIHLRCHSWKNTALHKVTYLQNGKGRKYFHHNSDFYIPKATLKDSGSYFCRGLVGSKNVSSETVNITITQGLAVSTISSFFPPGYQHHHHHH
# Experiment: SPR (Biacore), antibody captured, FcγR as analyte, 1:1 Langmuir fit
row,Kd [nM],Binder
1,1.5,B3
2,1.7,B4
3,6.9,B5
4,9.2,B6
5,10,B7
6,11,B8
7,7,B9
8,1.7,B10
9,6.3,B11
10,7.8,B12
